Test results published in patent US20240166738A1 (Alector, published 2024).

B1: TM-46 (antibody, V domains shown)
VH: QVQLQQSGADLVKPGASVKISCKASGYAFSSFWMNWVKLRPGKGLEWIGQIYPGDGDTDYNGKFKDKATLTADTSSNTAYMQLSRLTSEDSAVYFCARGDGFSYFDYWGQGTILTVSS
VL: QIVLTQSPVIMSASPGERVTMTCCASSRVNYMHWYQQKSGSYPKRWIYDTSKLASGVPGRFSGSGSGTSYSLTISSMEAEDAATYYCQQWSSNPPTFGGGTKLEIK
B2: TM-19 (antibody, V domains shown)
VH: DVQLQQSGAELVRPGASVKLSCTASGFNIKDYYMYWVKQRPEQGLEWIGRIDPEDGDTENAPKFRGMATMTADTSSNTAYLQLNSLTSEDTAVYYCTTRIGNLYHVMDYWGHGTSVTVSS
VL: DVLMTQTPLSLPVSLGDQASISCRSSQSIVHSNGNTYLEWYLQKPGQAPKLLIDKVFNRFSGVPDRFSGSGSGTDFTLKISRVEAEDLGVYYCFQGSHVPFTFGSGTKLEIK
B3: TM-22 (antibody, V domains shown)
VH: QVQLQQSGPELVKPGASVKISCKASGYRFTSYYIHWVKQRPGQGLEWIGWIYPGNGITNYNEKFKGKATLTADTSSSTAYMQLSSLTSEDSAVYYCASPYYGIRNCYFDVWGTGTTVTVSS
VL: DVLMTQTPLSLPVSLGDHASISCRSGQSIVHSNGNTYLEWYLQKPGQSPKLLIYKVSNRFSGVPDRFSGSGSGTDFTLKISRVEAEDLGIYYCFQGSHVPWTFGGGTKLEIK
B4: TM-26 (antibody, V domains shown)
VH: QVQLQQSGAELIRPGTSVKVSCKASGYAFTNYLIEWVKKRPGQGLEWIGVINPGSGITNYNEKFKGKATLTADKSSSTAYMQLSSLTSEDSAVYFCARSDFITTVVADYWGQGTTVTVSS
VL: DIVVTQTPLSLPVSFGDQVSISCRSSQSLTNYYGNTYLSWYLHKPGQSPQLLIYGISNRFSGVPDRFSGSGSGTDFTLKISTIKPEDLGMYYCLQGTHQPRTFGGGTKLEIK
B5: TM-83 (antibody, V domains shown)
VH: QVQLQQPGTELVKPGALVKLSCKASGYTFTTYWIHWVKQRPGQGLEWIGNINPSNGNTKNNERFKTKATLTVDKSSSTAYMQLSSLTSEDSAVYYCVRGDYYGTSYPFWGQGTLVTVSS
VL: DVVMTQTPLSLPVSLGDQASISCRSSQSLVHSNGITYLHWYLQKPGQSPKLLIYKVSNRFSGVPDRFSGSGSGTDFTLKISRVEAEDLGVYFCSQSTHVPYTFGGGTKLEIK
B6: TM-77 (antibody, V domains shown)
VH: QIQLQQSGAELVRPGASVKLSCKASGYTFTDYEMHWVKQTPVHGLEWIGVIDPETGGTAYNQMFKGKATLTADKSSSTAYMDLRSLTSEDSAVYYCVKYGIEGYWGQGTTLTVSS
VL: DVVMTQIPLTLSVTLGQPASISCKSSQSLFHSNGKTYLNWLLQRPGQSPKLLIYMVSKLESGVPDRFSGSGSGTDFTLKISRVEAEDLGVYYCLQVTHFPLTFGAGTKLELK
B7: TM-79 (antibody, V domains shown)
VH: EVQLQQSGPELVKPGASVKMSCKASGYTFTNYVMHWLKQKPGQGLEWIAHITPHNDGTKYNEKFKGKATLTSDRSSSTAYMELNSLTSEDSAIYYCARSGQFGRGDYFHYWGQGTTVTVSS
VL: DIVLTQSPASLAVSLGQRATISCRASKSVSTSGSIYIHWYQQKPGQPPKLLIYLTSNLESGVPARFSGSGSGTDFTLNIHPVEEEDAATYYCQHSGELPWTFGGGARLEIK
B8: TM-51 (antibody, V domains shown)
VH: QVQLQQPGAELVKPGASVKLSCKASGYTFTTYWIDWVKQRPGQGLEWIGNMFPGSSRTNYNEKFKSRATLTVDTSSSTAYMQLSSLTSDDSAVYYCARKEGLWTYGYDGGAWFAYWGQGTLVTVSA
VL: DIVMSQSPSSLAVSVGEKVTMSCKSSQSLRNSRTRKNYLAWYQQKPGQSPKLLIYWASTRESGVPDRFTGSGSGTDFTLTISSVQAEDLAIYYCKQSYNLLTFGAGTKLELK

The binders below were run against human TMEM106B (human, UniProt Q9NUM4 2-274) (assay: cell-based or functional assay).
Note: test concentration or dose not given here.

Going from B1 to B2, the “% Protection from CPE” value rises from 4.7% to 99.8%.

Going from B3 to B4, the “% Protection from CPE” value falls from 4.4% to 4.3%.

Going from B5 to B6, the “% Protection from CPE” value rises from 4.3% to 4.7%.

Going from B7 to B8, the “% Protection from CPE” value rises from 4.5% to 5.4%.
